One molecule from US11130801B2, “Method for inhibiting platelet derived growth factor signaling with C3aR or C5aR antibodies” (CASE WESTERN RESERVE UNIVERSITY, priority 2011, dated 2021) can be followed below.

Experiment [1] has as its system NIH-3T3 cells, bEND.3 ECs, TC-1 cancer cells. In words: Cell cycle assay (propidium iodide staining) of serum starved cells. The conditions noted are these: C5a added to serum starved cells; identical to EGF or VEGF-A. Type of experiment: cell-based. Here is the method: Because this dependence of growth factor responsiveness on C3aR/C5aR signaling could be indirect, i.e., a consequence of its requirement for viability, we performed cell cycle assays.
(§1) Propidium iodide staining was performed as described previously […]. In brief, the cells were serum starved for 24 hrs followed by administration of 1 μM colchicine (Sigma). 16 hrs following colchicine treatment, cells were given either growth factor treatment or 17 ng/mL mC5a. After an additional 24 hrs, cells were removed from plating via Trypsin/EDTA and fixed in 0.25% Formaldehyde for 10 mins at 37° C. Cells were spun out of formaldehyde solution and resuspended in 90% methanol at 4° C. until assayed. Following removal from methanol, excess RNA was removed via treatment with RNase (Sigma) and stained with propidium iodide for 30 mins at 4° C. Cells were analyzed on an Epics XL.

The test system of experiment [2] is HUVEC. Put plainly: Cell cycle assay of serum starved HUVEC. Type of experiment: cell-based. The conditions noted are these: identical to adding VEGF-A. The protocol:
as §1
Because the disruptive effect of C3aR/C5aR antagonism on VEGF growth induction could be a consequence of the requirement of autocrine C3aR/C5aR signaling for EC viability, we performed cell cycle assays. […] These findings that autocrine C3aR/C5aR signaling not only prevents EC apoptosis but drives EC growth point to a bidirectional signaling mechanism wherein C3aR/C5aR GPCR signaling transactivates to VEGFR2 signaling and vice versa.

For experiment [3], the system named is NIH-3T3 cells. Put plainly: Cell cycle assay of serum starved NIH-3T3 cells (PDGF study). Type of experiment: cell-based. Particulars: identical to adding PDGF. Here is the method: as §1
PDGF contributes to atherogenesis and plays a central role in neointimal proliferation following EC injury. […] Following determination of optimal PDGF-AA doses, we incubated 1×10^5 cells/well in triplicate with 30 ng/ml of PDGF-AA±10 ng/ml of C3aR and C5aR antagonists (C3aR-A/C5aR-A), 10 ng/ml of anti-C3a/anti-C5a mAbs or respective controls, after which we quantified cell growth by counting cell numbers over time. […] To directly establish whether C5aR signals augment PDGF-AA growth signaling, we 1) quantified the effect of added C5a one growth, and 2) assayed C5a in culture supernatants of PDGF-AA treated cells. […]

In experiment [4] the test system is VEGFR2. In words: VEGFR2 phosphorylation immunoblot in serum starved primary WT aortic ECs. Type of experiment: cell-based, murine. The conditions noted are these: added C5a, relative to untreated controls. Here is the method:
FIG. 21 illustrates an immunoblot of VEGFR2 phosphorylation. C5a or VEGF-A was added to serum starved primary cultures of WT murine ECs in the absence or presence of C3aR-A/C5aR-A and VEGFR2 phosphorylation assessed by immunoblotting with anti […] mAb.
To directly establish whether C3aR/C5aR signaling is integral to VEGF signaling, we next evaluated phosphorylation of VEGFR2. We tested 1) how adding C5a to primary WT ECs affects VEGFR2 autophosphorylation and 2) whether VEGFR2 phosphorylation induced by added VEGF-A is affected by antagonizing C3aR/C5aR signaling. We incubated serum starved WT aortic ECs with C5a or with VEGF-A in the absence or presence of C3aR-A/C5aR-A, after which we probed immunoblots of protein lysates and anti-pVEGFR2^Y1054/1059 mAb or pan VEGFR2 antibody.
A general note: Immunoblotting shows a protein as a band on a membrane.

Experiment [5] has as its system NIH-3T3 fibroblasts. Put plainly: PDGF-AA growth induction of NIH-3T3 fibroblasts (cell counts over time). Format: cell-based. Particulars: added C5a by itself. Here is the method:
PDGF contributes to atherogenesis and plays a central role in neointimal proliferation following EC injury. In view of the growth difference of primary cultured Daf1^−/−, WT, C3aR^−/−C5aR^−/−, and C3^−/−C5^−/−SMCs, we examined whether C3aR/C5aR signals are interconnected with PDGF growth induction. For these studies, we utilized NIH-3T3 fibroblasts (which express PDGFR-αα) in conjunction with PDGF-AA. Following determination of optimal PDGF-AA doses, we incubated 1×10^5 cells/well in triplicate with 30 ng/ml of PDGF-AA±10 ng/ml of C3aR and C5aR antagonists (C3aR-A/C5aR-A), 10 ng/ml of anti-C3a/anti-C5a mAbs or respective controls, after which we quantified cell growth by counting cell numbers over time. […] To directly establish whether C5aR signals augment PDGF-AA growth signaling, we 1) quantified the effect of added C5a one growth, and 2) assayed C5a in culture supernatants of PDGF-AA treated cells. […] Because the dependence of PDGF growth induction on C3aR/C5aR signaling could be indirect, i.e., a consequence of its requirement for viability, we performed cell cycle assays.

Experiment [6] relates to HUVEC. In words: Complement mRNA transcripts in HUVEC by qPCR. Type of experiment: cell-based. Particulars: added C3a or C5a. The protocol: FIG. 33 illustrates charts showing qRT-PCR analysis of C3, factor B and factor D transcripts from HUVEC under hypoxia. A) HUVEC treated with TNF-α, IL-1, and IFN-γ. Blue bars represent samples after treatment. B-C) HUVEC stimulated with C3a (10 ng/ml for 2 hr) or C5a (10 ng/ml for 30 min) Blue bars represent control without C3a/C5a stimulation while red bars represent samples after stimulation. D) HUVEC incubated for 1 hr with FCCP+IAA. Blue bars represent control without hypoxia treatment while yellow bars represent two samples after hypoxia treatment.
We next conversely assessed how transducing C3aR/C5aR signals into ECs affects endogenous EC complement production and whether it is connected with “classical” EC responses. We incubated HUVEC with 1) inflammatory cytokines, 2) the mitochondrial uncoupler protonophore carbonyl cyanide p-(trifluoromethoxy)phenylhydrazone (FCCP)+iodoacetate (IAA) (which mimics hypoxia), or 3) C3a or C5a, after which we assayed complement mRNA transcripts by qPCR. […]
ECs and leukocytes locally synthesize C3/fB/fD/C5 and the elicited C3a/C5a signal through C3aR/C5aR on the same cells to amplify this synthesis. To determine whether ECs locally synthesize AP complement components, we added IL-1/IFN-γ/TNF-α to HUVEC, 1 hr after which we quantified C3 and fB transcripts by qPCR. […]

Experiment [7] relates to Raji, Jurkat, U937 cells, primary mΦs, B cells, and DCs. Put plainly: AP and C5 gene transcription in leukocytes by qPCR. Type of experiment: cell-based. The conditions noted are these: 10 nM C5a. An excerpt:
ECs and leukocytes locally synthesize C3/fB/fD/C5 and the elicited C3a/C5a signal through C3aR/C5aR on the same cells to amplify this synthesis. To determine whether ECs locally synthesize AP complement components, we added IL-1/IFN-γ/TNF-α to HUVEC, 1 hr after which we quantified C3 and fB transcripts by qPCR. […] To test whether leukocytes that are recruited to sites of EC injury locally synthesize AP components and C5a similarly feeds back in them to amplify local complement production, we stimulated Raji, Jurkat, U937 cells, primary mΦs, B cells, and DCs with 10 nM C5a. This documented induction of AP and C5 gene transcription by qPCR.
A general note: Real-time PCR tracks product formation cycle by cycle.

The subject of experiment [8] is C5aR. Put plainly: Proinflammatory gene transcription induced by C5aR signaling. Type of experiment: cell-based. Particulars: added C5a. An excerpt:
In view of the connections of MCP-1 and other proinflammatory cytokines with atherosclerosis and the mechanistic linkage of DAF deficiency with potentiated C3aR/C5aR transduction, we tested whether C5aR signaling induces proinflammatory gene transcription. Added C5a induced the mRNA transcription of chemotactic MCP-1/IL-8, proinflammatory IL-1β/IL-6 and growth inductive GM-CSF.

B1: C5a: complement activation fragment (anaphylatoxin) added to cells (protein, UniProt P01031 678-751, looked up)
C5a anaphylatoxin: TLQKKIEEIAAKYKHSVVKKCCYDGACVNNDETCEQRAARISLGPRCIKAFTECCVVASQLRANISHKDMQLGR
modifications: C5a anaphylatoxin
For the molecule B1, the “cell cycle transition after adding C5a” value in experiment [1], in experiment [2] and in experiment [3] was “transition from G0 into G2” throughout. The “VEGFR2 Y1054/1059 phosphorylation” value in experiment [4] is reported as “increased”. Further, the “proliferation of NIH-3T3 cells” value in experiment [5] is reported as “induced proliferation”. The “production of AP components by ECs” value in experiment [6] was “more AP components”. Moreover, the “transcription of C3” value in experiment [6] is on record as “increased”. Moreover, the “AP and C5 gene transcription” value in experiment [7] is “induction”. The “mRNA transcription of MCP-1/IL-8, IL-1β/IL-6 and GM-CSF” value in experiment [8] was “induced”.
